Measured values reported in patent US20260258117A1 (ACADEMISCH ZIEKENHUIS LEIDEN H O D N LUMC, published 2026).

Biological target: T1, C4b-binding protein (human, UniProt P04003 49-597; P20851 18-252)
T1 construct: also called C4BP
T1 sequence (looked up) 1: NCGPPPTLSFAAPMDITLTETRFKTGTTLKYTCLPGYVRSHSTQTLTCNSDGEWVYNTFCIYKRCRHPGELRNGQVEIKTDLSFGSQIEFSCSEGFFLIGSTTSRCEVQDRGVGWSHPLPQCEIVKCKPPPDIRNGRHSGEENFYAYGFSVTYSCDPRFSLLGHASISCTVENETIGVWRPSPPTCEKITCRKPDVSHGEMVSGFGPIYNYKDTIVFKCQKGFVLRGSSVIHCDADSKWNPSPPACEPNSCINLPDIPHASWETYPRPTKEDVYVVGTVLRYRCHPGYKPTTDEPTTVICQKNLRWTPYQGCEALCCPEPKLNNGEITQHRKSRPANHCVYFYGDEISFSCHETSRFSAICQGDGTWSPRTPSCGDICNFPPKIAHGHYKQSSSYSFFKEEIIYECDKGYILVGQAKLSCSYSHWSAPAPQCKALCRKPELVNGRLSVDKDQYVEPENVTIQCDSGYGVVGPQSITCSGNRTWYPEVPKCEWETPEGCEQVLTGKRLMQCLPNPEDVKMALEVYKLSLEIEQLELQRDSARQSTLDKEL
T1 sequence (looked up) 2: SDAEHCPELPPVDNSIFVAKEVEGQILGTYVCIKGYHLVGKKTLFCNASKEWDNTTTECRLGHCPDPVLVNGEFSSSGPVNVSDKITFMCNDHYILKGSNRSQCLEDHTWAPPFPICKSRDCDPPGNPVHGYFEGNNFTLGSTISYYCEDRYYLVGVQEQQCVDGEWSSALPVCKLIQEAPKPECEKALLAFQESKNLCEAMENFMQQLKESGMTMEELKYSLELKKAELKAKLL
Assay: bispecific ELISA
Description: BsAbs were tested for binding to both antigens in a bispecific ELISA. MaxiSorp plates (Thermo Scientific, Nunc, 430341) were coated with 50 μL/well BSA-DNP (10 μg/mL, Biosearch Technologies, D-5050-10, conjugation ration 13) in coating buffer (0.1 M Na₂CO₃/NaHCO₃PH 9.6) for 1 hour at 37° C. After every incubation, plates were washed three times with PBS/0.05% Tween 20. Plates were blocked with 100 μL/well PBS/1% BSA for 1 hour at 37° C. After washing, plates were incubated with 50 μL/well (bs) Abs diluted in PBS/0.05% Tween 20/1% BSA (PTB buffer) for 1 hour at 37° C. Next, 1 μg/mL FH (CompTech, A137) or C4BP (CompTech, A109) diluted in PTB buffer was added. FH was detected using goat anti-human FH (Quidel, A312) and HRP-labeled rabbit anti-goat Ig (Dako, P0449), and C4BP was detected using rabbit anti-human C4BP (kind gift from Anna M. Blom, Malmö, Sweden) and HRP-labeled goat anti-rabbit Ig (Dako, P0448), all diluted in PTB buffer. Plates were developed by incubating with 50 μL/well ABTS (Merck, A1888-5G) containing 1:2000 diluted H₂O₂ (Merck, 1072090250), and read at 415 nm using a microplate reader (BIO-RAD iMark). It was confirmed by ELISA that the bsAbs can bind to a specific target (e.g., DNP as a model antigen) as well as FH or C4BP, whereas the parental monospecific antibodies cannot (FIG. 1A).

binding result: binds
B1: Anti-C4BP F405L LALAPG, Anti-DNP K409R LALAPG (bispecific antibody, human IgG1, kappa, L234A L235A)
heavy 1: EVQLVESGGGLVKPGGSLKLSCAVSGFIFSDYYMYWVRQTPEKRLEWVATISDGGVYTYYPDSMKGRFTISRDNAKNNLYLQMSSLKSEDTAMYYCVRGDYYGNSLDYWGQGTSVTVSSASTKGPSVFPLAPSSKSTSGGTAALGCLVKDYFPEPVTVSWNSGALTSGVHTFPAVLQSSGLYSLSSVVTVPSSSLGTQTYICNVNHKPSNTKVDKRVEPKSCDKTHTCPPCPAPEAAGGPSVFLFPPKPKDTLMISRTPEVTCVVVDVSHEDPEVKFNWYVDGVEVHNAKTKPREEQYNSTYRVVSVLTVLHQDWLNGKEYKCKVSNKALGAPIEKTISKAKGQPREPQVYTLPPSREEMTKNQVSLTCLVKGFYPSDIAVEWESNGQPENNYKTTPPVLDSDGSFLLYSKLTVDKSRWQQGNVFSCSVMHEALHNHYTQKSLSLSPGK
light 1: DVVMTQTPLTLSITIGQPASISCKSSQSLLDGDGKTYLNWLLQRPGQSPKRLIYLVSKLDSGVPDRFTGSGSGTDFTLKISRVEAEDLGVYYCCQGTHFPWTFGRGTKLEIKRTVAAPSVFIFPPSDEQLKSGTASVVCLLNNFYPREAKVQWKVDNALQSGNSQESVTEQDSKDSTYSLSSTLTLSKADYEKHKVYACEVTHQGLSSPVTKSFNRGEC
heavy 2: DVRLQESGPGLVKPSQSLSLTCSVTGYSITNSYYWNWIRQFPGNKLEWMVYIGYDGSNNYNPSLKNRISITRDTSKNQFFLKLNSVTTEDTATYYCARATYYGNYRGFAYWGQGTLVTVSAASTKGPSVFPLAPSSKSTSGGTAALGCLVKDYFPEPVTVSWNSGALTSGVHTFPAVLQSSGLYSLSSVVTVPSSSLGTQTYICNVNHKPSNTKVDKRVEPKSCDKTHTCPPCPAPEAAGGPSVFLFPPKPKDTLMISRTPEVTCVVVDVSHEDPEVKFNWYVDGVEVHNAKTKPREEQYNSTYRVVSVLTVLHQDWLNGKEYKCKVSNKALGAPIEKTISKAKGQPREPQVYTLPPSREEMTKNQVSLTCLVKGFYPSDIAVEWESNGQPENNYKTTPPVLDSDGSFFLYSRLTVDKSRWQQGNVFSCSVMHEALHNHYTQKSLSLSPGK
light 2: DIRMTQTTSSLSASLGDRVTISCRASQDISNYLNWYQQKPDGTVKLLIYYTSRLHSGVPSRFSGSGSGTDYSLTISNLEQEDIATYFCQQGNTLPWTFGGGTKLEIKRTVAAPSVFIFPPSDEQLKSGTASVVCLLNNFYPREAKVQWKVDNALQSGNSQESVTEQDSKDSTYSLSSTLTLSKADYEKHKVYACEVTHQGLSSPVTKSFNRGEC
notes: Made by controlled Fab-arm exchange; also called anti-C4BP x anti-DNP
